We go through eight molecules from publication PMC2665213 (Nucleic Acids Research, 2009).

Like-named read-outs stand apart in the source and are kept apart here.

Data set [1] deals with the molecule itself. The data set can be described thus: SEC. A general note: Size exclusion chromatography separates by hydrodynamic size, large species first.
The target of data set [2] is T1, TDP-43 RRM2 (mouse, UniProt Q921F2 192-265). The data set can be described thus: filter binding.
Data set [3] deals with T2, TDP-43 RRM1 (mouse, UniProt Q921F2 101-191). Put plainly: filter binding.
The target in data set [4] is T3, TDP-43s (RRM1-RRM2) (mouse, UniProt Q921F2 101-265). Put plainly: filter binding.
Data set [5] addresses T3, TDP-43s (RRM1-RRM2). The data set can be described thus: filter binding. The source holds these as a separate data set.
Data set [6] addresses T1, TDP-43 RRM2. The data set can be described thus: crystal structure.
Data set [7] concerns the target T1, TDP-43 RRM2. The data set can be described thus: filter binding. This is another data set of the same source.
The target of data set [8] is T2, TDP-43 RRM1. Put plainly: filter binding. This is another data set of the same source.
Data set [9] concerns the molecule itself. The data set can be described thus: SEC. This is another data set of the same source.

B1: RRM1 (first RRM domain of mouse TDP-43) (domain or fragment, UniProt Q921F2 101-191, looked up)
chain: QKTSDLIVLGLPWKTTEQDLKDYFSTFGEVLMVQVKKDLKTGHSKGFGFVRFTEYETQVKVMSQRHMIDGRWCDCKLPNSKQSPDEPLRSR
As for B1, in “SEC [1]”, the “stoichiometry N” value was determined as 4.

In the case of UGUGUGUGUGUG (ssRNA) [(UG)6], the Kd amounted to 4240 nM with TDP-43 RRM2 [2], 65.2 nM with TDP-43 RRM1 [3] and 14.2 ± 1.4 nM with TDP-43s (RRM1-RRM2) [4].

UGUGUGUG (ssRNA) [(UG)4] showed a Kd with TDP-43s (RRM1-RRM2) [5] of 115 nM.

As for GTTGAGCGTT (ssDNA) [10-mer crystal ssDNA], the binding result in the data set with TDP-43 RRM2 [6] is “binds”.

As for UGUGUG (ssRNA) [(UG)3], the results for the Kd in the data set with TDP-43 RRM2 [7], with TDP-43 RRM1 [8] and with TDP-43s (RRM1-RRM2) [5] were 379 nM, 4690 nM and 3060 nM, respectively.

B2: TDP-43s (truncated mouse TAR DNA-binding protein 43 covering both RRM domains) (domain or fragment)
chain: MRGSHHHHHHGSQKTSDLIVLGLPWKTTEQDLKDYFSTFGEVLMVQVKKDLKTGHSKGFGFVRFTEYETQVKVMSQRHMIDGRWCDCKLPNSKQSPDEPLRSRKVFVGRCTEDMTAEELQQFFCQYGEVVDVFIPKPFRAFAFVTFADDKVAQSLCGEDLIIKGISVHISNAEPKHNKLN
As for B2, the “stoichiometry N” value in “SEC [1]” stood at 2.

UGUGUGUGUGUGUGUG (ssRNA) [(UG)8] gave a Kd with TDP-43s (RRM1-RRM2) [5] of 2.79 nM.

B3: RRM2 (second RRM domain of mouse TDP-43) (domain or fragment)
chain: MRGSHHHHHHGSKVFVGRCTEDMTAEELQQFFCQYGEVVDVFIPKPFRAFAFVTFADDKVAQSLCGEDLIIKGISVHISNAEPKHNKLN
With B3, the “stoichiometry N” value in “SEC [9]” worked out at 2; in the data set “SEC [1]”, 4.

Usually stoichiometry N stands for a count of units in the complex or per binding partner. As a reminder, the Kd is the constant that tells how readily two partners part at equilibrium. A higher Kd goes with a looser complex.
